System: MS2 coat protein
Assay: apparent KD of MS2 coat protein; higher = weaker reporter binding
Conditions: Eterna round: R107
In short: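 Titration buffer: 100 mM Tris-HCl pH 7.5, 80 mM KCl, 4 mM MgCl2, without or with constant ligand. Designed RNA switches transcribed on-chip from Illumina sequencing clusters received SNAP-549-labelled MS2 coat protein in twofold steps from 0.7 or 1.5 nM to 3 µM. Apparent KD is the median per design of fits to normalised cluster binding curves.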

[1] = input ligand: theophylline 20 uM
[2] = input ligand: theophylline 2 mM
[3] = input ligand: tryptophan 2.4 mM

Row | Sequence | apparent KD of MS2 coat protein (input ligand: arginine 13.2 mM) [nM] | apparent KD of MS2 coat protein (input ligand: none) [nM] | apparent KD of MS2 coat protein [1] [nM] | apparent KD of MS2 coat protein [2] [nM] | apparent KD of MS2 coat protein [3] [nM]
1 | GUGACUUACGGGCGCCAUUUGUAAUAGGAAGGAGCGGCGAAAUAGCCAGGUAGGUCGCCUAUACAUGAGGAUCACCCAUGUCACC [Esatbileor] | 46.9 | 91.9 | 105 | 105 | 77.8
2 | CAAUCAAUCAAUCAAUCAAUCAACCAUGAAGGAGCGUGGGAAACCACAGGUAGGUCGCAUGGAAAACAUGAGGAUCACCCAUGUA [Casablanca] | 22.1 | 30.9 | 45.2 | 36.4 | 29.2
3 | AAACAUUGCUCAGAUACCAGACAUGAGGAUCACCCAUGUACCGAGGUACCCGAAAGGAAUGUCCCUUGGCAGCUGAGCAAUGAAA [MAT - Exclusion Theophlline B - Mod of Eli - D22] | 14.2 |  | 15.3 |  | 11.4
4 | ACAUGUUGGUGGUACCAACGAAGGCGGAAACGAGGACCGGUACGGCCGCCACUCGGCGACAUGAGGAUCACCCAUGUGGUUAAAA [Exclusion - Tryptophan A (Freestyle 3)] |  | 398 | 134 | 95.7 | 70
5 | AUUCAUGAAAACAUGACAUAGGGAUCACUCCGAGGACCGGUACGGCCGCCACUCGCGAGGAGGCACAUGAGGAUCACCCAUGUUA [SS Tryp A #3] | 36.8 | 115 | 146 | 180 | 108
6 | GAGCUCGUGGACUGGCGUGCUCCGCUCCGUCGAGGACCGGUACGGCCGCCACUCGACAUGAGGAUCACCCAUGUGUGAGCUCGCU [#1 Exclusion - Tryptophan A Attempt #21 (HarryS)] | 61.1 |  | 185 | 390 | 
7 | GGACUAACUCGAAGGAGCGACACGCAGAAACUGCAAUUUCCUCCACACGAGGAUCACCCGUGUCAGGUAGGUCGCGAGUUAGUCG [ArgBX 29] | 20.8 | 21.8 | 26.3 | 28 | 19.8
8 | AGAGCAUUGACGGCCGCCACUCAUGUCACAUGAGGAUCACCCAUGUGAUGGGUAAUCGCCCGGUUGAGGACCGGGUCAAUGCUCA [Omei Tryp SS B v3] | 6.69 | 6.99 | 16.9 | 8.46 | 10.7
9 | GCCGCGGCCGGAAUAAACAUGGGUAAAUAACGAGGACCGGUACGGCCGCCACUCGAGAUAAAUAACAUGAGGAUCACCCAUGUAC [Exclusion Tryp A GF11] | 43 |  | 111 | 123 | 
10 | UGUAUGUGAUCUGAUACCAGUCCAACUGGUAAAACCUGAGGAUCACCCUGGUAAAAUUGGGACCCUUGGCAGCAGAUCGCAUACU | 222 | 350 | 674 | 125 | 560
11 | AGCAUUGUAACAGAUACCAGACUUUUAAUGCCUCUAAUAACAUGAGGAUCACCCAUGUAUGUCCCUUGGCAGCUGUUAUGAUGCA [JR_ExcTheophyB_Sub008] | 68.1 |  | 171 |  | 112
12 | UAAUAAAUAAAUCCAAGGUGAAGGUCAGAUACCAGCCAGAUAACUGGCCCUUGGCAGCUGAAUAAACUUGAGGAACACCCAAGUA [TheoAS 28 #OpenEnded #MS2Late #AlternativeMS2] | 16.7 | 23 | 31.3 | 82 | 22.7
13 | UGGGUACCGACGGCCGCCACUGACUAUAGACAUGAGGAUCACCCAUGUAGAGAUCCUAGACUACCCAGGACCGGGUCUGGUGCUA [Exclusion Tryptophane B GF6] | 61 |  | 165 | 149 | 
14 | AGUAUUGGAAACAGUACUAGUGAUCCGGUCCGAGGACCGGUACGGCCGCCACUCGAUUUAAAUAAACAUGAGGAUCACCCAUGUA [Ex Tryptophan A 14] | 15.8 |  | 17.2 | 16.5 | 
15 | AGCGACAUGCGUGAUACCAGCUACAUGAGGAUCACCCAUGUCAGCAGGAAACUGCUGUGUAGCCCUUGGCAGCACAGUGCAUGUC [Exclusion - Theophylline B (Freestyle 28)] | 12.9 |  | 18.1 |  | 13.8
16 | GCAUCCUAGUCGGCCGCCACUGGUACGAACACCUUCACCCGUGUGCACAUGAGGAUCACCCAUGUUAGGACCGGGACUAGGAUGC [SSTryp B #21] | 10.3 |  | 11 | 8.45 | 
17 | UGAUGGUACGGAAGGAGCGUGUAAGAACAAGAACAUGAGGAUCACCCAUGUAUUAAUUUAACACAGGUAGGUCGCCGUGUUAUUG [11.H] | 31.9 | 29.2 | 35.8 | 54.7 | 16
18 | UCGCUAUUGUCGGCCGCCACUACUGCAGGGAAACAAAUAUAACCACAUGAGGAUCACCCAUGUCUUAGGACCGGGACACCCAUCU [theeternabot_sameState_MS2_Trp_B_2] | 54.8 |  | 126 | 119 | 
19 | AACGUAUACAGAAGGAGCGUGAUUUAUAAUUCUUUAAAAUAUACAUGAGGAUCACCCAUGUCACAGGUAGGUCGCUGUAUUCGUA [JR_ExcArginiB_Sub024] | 29.8 | 35.7 | 43.1 | 35.2 | 33.2
20 | UGACAUUGCUCAGAUACCAGACAUGAGCAUCAGCCAUGUGCCAACAAGUACAAAAUAAAUGUCCCUUGGCAGCUGAGCAAUGUCU [TheoBX 23 #MS2Left #AlternativeMS2 #Theo22] | 14.1 | 10.9 | 16 | 153 | 12.3
21 | AUCGCACCUGGUGAUACCAGCGUUUGCUCGCGACAUGAGGAUCACCCAUGUGGCCAGUGAUGCCCUUGGCAGCAUGGGCGGUGCA [Same State - Theophylline B (Freestyle 28)] | 111 |  | 412 |  | 349
22 | UGUAUGGACUGAAGGAGCGGAAGAUAACCUGAGGAUCACCCGGGUAAUAAGGCGAAAGCCUUCCAGGUAGGUCGCAGUCCAUACU | 230 | 293 | 334 | 419 | 250
23 | UCCACAUGAGGAUCACCCAUGUAAUCAGAUACCAGUGACGAAAGUCACCCUUGGCAGCUGAUUACUUUAGUUCGAGGGUGUUUGA [EThA NP+V+V2 #4 Same Structure] | 84.5 |  | 148 |  | 79.5
24 | CCUCAAUAGACGGCCGCCACUGAAUCAUGCGGAUACAUGAGGAUCACCCAUGUGGGUGUGGUACGCAGGACCGGGUCAAGACCCG [#13 Same State - Tryptophan B] | 278 | 145 | 454 | 1860 | 149
25 | CGUCGAGACUGAAGGAGCGAGAUAACAACAUUGGGUCUCAACAUGAGGAUCACCCAUGUAUCUCAGGUAGGUCGCGGUGUCACCG [Exclusion Arginine B GF20] | 137 | 330 | 302 | 484 | 298
26 | UGAGUUCGCUGAUGGGCUACGUCAGGUGAUACCAGCCACUCCCGCGGCCCUUGGCAGCACAUGAGGAUCACCCAUGUAGAGCUUG [Lazaceonus] | 17.9 | 15.7 | 20.4 | 254 | 14.1
27 | UGUAUGGACUGAAGGAGCGGGAAAUAAACCUGAGGAACACCCAGGUAAUAGGCGAAAGCCACCCAGGUAGGUCGCAGUCCAUACU | 17.2 | 13.6 | 14.8 | 14.4 | 18.8
28 | GUUAUAUACUCGGCCGCCACUGAGAGAGUCAUGUAAACAUGAGGAUCACCCAUGUAAUAUAUAUACAGGACCGGGAGUAUAGUAA [4.D] | 19.8 |  | 22 | 19.6 | 
29 | GUAAGAGUAGGAAGGAGCGCUUUACAUGAGGAUCACCCAUGUGUGCCCUCAAUUUCGGUAAAGCAGGUAGGUCGCCUAAACUUGC [Tiqurabi] | 31.2 | 34.5 | 175 | 67.5 | 57
30 | GGGCCCGUAAGCAGGCCCACAGCGGGUGAUACCAGCAAUAAAACUUGCCCUUGGCAGCACACAGCUACAUGAGGAUCACCCAUGU [Mausdi] | 24.3 |  | 59.3 |  | 88.6

Source: the supplement of paper PMC9170038
